According to the RNAGym collection of RNA variant scans (doi:10.1073/pnas.2313332121):

B1: TPR t1 (parent)
chain: GACCAAUCUGCCCUCAGAGCUCGAGAACAUCUUCGGAUGCAGAGGAGGCAGGCUUCGGUGGCGCGAUAGCGCCAACGUCCUCAACCUCCAAUGCAUCCCACCACAUGAUGAUGCCUGAAGAGCCUUGGUUUUUUG

Variants of: B1
Assay: polymerase ribozyme fitness, log enrichment relative to wild type (log ratio); higher = more active; in vitro selection for triplet polymerase activity
How it was run: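 One round of in vitro selection, in triplicate, was applied to PCR-built, transcribed mutant libraries of each subunit of a heterodimeric triplet polymerase ribozyme. The steps were annealing with a biotinylated primer, partner subunit and triplets, incubation frozen at −7 °C, gel excision of extended constructs, streptavidin-bead capture and RT-PCR. Fitness is the logarithm, base 2, of genotype enrichment over wild-type enrichment from inverse-variance-weighted replicate averages of Illumina-sequenced inputs and outputs, keeping genotypes with ≥10 input reads and ≥1 read per output.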

| Variant | polymerase ribozyme fitness (log ratio) |
| --- | --- |
| U87G U130G | -0.21 |
| U59C A83U C94A C115U | -4.3 |
| C72A C89A C124G | 0.634 |
| A50C G117U | -2.95 |
| C8G G58A C70U U96A | -1.13 |
| G47U G48A | 0.823 |
| C12A G19C C85U A91U G122U | -3.66 |
| C13U A27G G47A C64U | -3.03 |
| C15G G61C | -2.41 |
| U7A C8U G107C C124U | -4.43 |
| U30G C64U A121G | -4 |
| G39U G107U G117U | -6.23 |
| C40U A83G U112G | -1.69 |
| C28G U87G | -2.01 |
| G63A U81A | -2.01 |
| C4A G69U | -0.0821 |
| G47C G52U A74G U96A | -4.89 |
| U9A G23A G25C A43C G51A A68G U106A C123U | -6.69 |
| A2C C4U C13A C49A C56A G71A U87A | -6.32 |
| A68U C115A G120C | -7.66 |
| G51A G52A C101U | -3.92 |
| U9A C13G A37G C82G U116C U125A | -4.1 |
| C49A A105C | -2.48 |
| C3G C13A | -3.57 |

| Variant | polymerase ribozyme fitness (log ratio) |
| --- | --- |
| C22U G71U | -4.03 |
| C4G U125G | 0.0157 |
| C3A C12G C56G C123U | -0.749 |
| C34U C72A C123A | -5.4 |
| G47C C70U U78A | -1.82 |
| C76G C101A | -3.2 |
| G47A C88U | -0.911 |
| C11G C22G A41G G128C | -5.82 |
| U7G G10U C15A C56A G63C C64A C114A A121U C123G | -6.92 |
| A91U C102U | -4.75 |
| C11U A18C C73U G127A | -5.36 |
| C70A C98U U130G | -2.6 |
| G71A C104A | -2.33 |
| C40U C76U G117A | -2.16 |
| G36U G107C | -5.19 |
| U38A C102U | -4.16 |
| A37C G60A C102A | -3.1 |
| C56G U112C | 1.26 |
| G52A G57U C72U | -0.842 |
| C3A G60U | -1.28 |
| G60A G135C | 0.136 |
| C72G C85G | -1.98 |
| C56U A74C A91G | -1.72 |
| C4A C11G G44C U54C | -1.66 |

| Variant | polymerase ribozyme fitness (log ratio) |
| --- | --- |
| A6U C34G U87A G120A | -3.94 |
| G47U C62U U78C G117C | -5.23 |
| C28U A50U C62U A68G U106A G110A C114A | -6.37 |
| C11U G39U | -1.37 |
| G36U A50U A118U | -1.34 |
| G69U C88G | -0.121 |
| G117A U129G | -4.37 |
| C62U G93C A105U | -3.5 |
| A29C U112A | -2.33 |
| G61A C85G G93A C101G | -2.53 |
| C70A A83G C85U G113U G117U | -6.04 |
| U21G G36C C72G | -2.78 |
| C101U | -0.0389 |
| C101G | -1.66 |
| G39U C79U C88A G110A G117U | -6.66 |
| G61C C70U | -4.17 |
| C8A G48C C49U C62A C94A | -3.22 |
| C53A G60A | -0.364 |
| C11G C28G G58U | -2.76 |
| C11A C124U | 0.668 |
| G69U U112A | 1.84 |
| C88U U112A | 0.961 |
| G117A A119C G120C G122A U133G | -3.42 |
| C3U C8G G48U G93U | -0.42 |

| Variant | polymerase ribozyme fitness (log ratio) |
| --- | --- |
| U9C G69A G77A | -2.73 |
| A37U A74C C88G G110A | -3.27 |
| C8A C88A | 0.0973 |
| G51C U78A U106A | -4.81 |
| U33A C79U C94A C104U G120A | -4.61 |
| A2U G120A | -0.642 |
| G45A G63A | -1.39 |
| A29U C73U C98U A111C | -3.36 |
| G47U G51A A121G G128U | -3.97 |
| G42A C86A U106G | -5.73 |
| C53U A74C | -0.315 |
| C13A G71U A74G U109A | -6.36 |
| A108U U129A | -6.43 |
| C4G C64U | -2.5 |
| C86U C114A | -1.71 |
| C4G C15A A16U C53A U78C C115U | -3.67 |
| C56U A90G C104U G117A A118U U131G | -2.92 |
| C22A A91G | -4.94 |
| A84U U131G | -0.716 |
| G71U U126G | -2.34 |
| A84G U109G | -5.8 |
| U21G C94U | -1.8 |
| A2C C28U G71A U78A A90G | -5.83 |
| G36A A68G | -3.57 |

| Variant | polymerase ribozyme fitness (log ratio) |
| --- | --- |
| U59A G128A | -1.96 |
| U21A C49G G61U U130C | -0.83 |
| A75G C94A | -0.695 |
| C11G G23C U32C G61A C86U U133A | -5.64 |
| A43C G77U C85G | -4.12 |
| A2G C8G A121U U129G | 0.138 |
| A2G C4G G47A G48A C123A | -3.22 |
| C76U C89G C98U | -4.45 |
| U7G U32G C73A C98A | -4.14 |
| G47A G93U | -2.71 |
| C31A G107C | -4.91 |
| C12A C99U | -3.06 |
| C12G G93U U112A | 0.281 |
| C11A G60U U112A A118U | 0.776 |
| A18G G39C C94A U112G C124G | -5.87 |
| C28U C72U C82U | -1.52 |
| C12G C28G A37U C72U G110U | -0.76 |
| C101G G127A | -2.28 |
| A46G G120C G128C | -2.6 |
| U9G C76U | 0.331 |
| A41C G69U | -0.161 |
| C34G C82U | -6.19 |
| C13G G45U G71U C85A | -4.6 |
| C4U C11U C104U C115A | -2.94 |

| Variant | polymerase ribozyme fitness (log ratio) |
| --- | --- |
| C12G C13A A24G U106G C124A | -1.63 |
| G45C C53G C73A | -0.795 |
| C22U C62A U106G A108C A121G G122U | -7.34 |
| A27U U78C U81A C94U | -4.92 |
| G65C U87A | -5.6 |
| U7G C49A C123U | 0.939 |
| C11G C28A C56U C124G | -3.7 |
| C40U G122A | -1.22 |
| G25U C76A G113C | -5.51 |
| A83G U109C | -5.77 |
| A90U C97U C104A U109G C124A | -3.98 |
| C82G U116G | -2.05 |
| C11G C49A A74G A75U G77U | -0.693 |
| C40U C72U C98G G127U U131C | -6.34 |
| A16C G117U A121C | -4.48 |
| C11G C12G C79G C94U G117A U131A | -2.71 |
| C56A G63C | -2.33 |
| G61C C88A | -2.91 |
| A43U U55C U92C | -2.54 |
| C3U C11A G47A C72A G110U | -2.89 |
| U21G | -0.965 |
| C34G C73A U116A A121U | -4.42 |
| C79G C115G | -4.07 |
| G51A A95C | -3.42 |

| Variant | polymerase ribozyme fitness (log ratio) |
| --- | --- |
| C15U A83C A91G A111G | -2.96 |
| C12G C86G C89G C104U | -1.35 |
| A26U C70U | -4.13 |
| C62A U131A G135A | -2.64 |
| G36C A37C A41G G61U | -4.4 |
| U81G U112G | -5.41 |
| G48U C56A C114G G127C | -5.92 |
| C12G C88G | -0.624 |
| G113U U133A | -3.57 |
| G10A G19A C114U U133G | 0.465 |
| C40U A68U A74U C97U C102A A111G | -7.15 |
| G44A C88A | -1.02 |
| G48A G69U C72U U126G G128A U132A | -2.53 |
| U9A G36C C101U | -0.0357 |
| C22U A43C C123G | -4.32 |
| C8G A18U C73G U126G | -5.64 |
| G36C G65U C72U G107A G117C G128A U133A | -7.08 |
| A6U A50C | 0.0675 |
| A66G C72U C80U C123A | -3.12 |
| U21C G60U G110A | -3.6 |
| C31A U81C C124A | -5.14 |
| G71C A84G U133A | -3.86 |
| U59G A90G C97U A111C | 0.601 |
